PMC5825201 (mAbs, 2018)

Molecular target: endogenous human tissue factor on MDA-MB-231 breast cancer cells (Homo sapiens (MDA-MB-231 cells), UniProt P13726)
Assay: flow cytometry on cells

endogenous human tissue factor on MDA-MB-231 breast cancer cells, sequence (P13726 33-295): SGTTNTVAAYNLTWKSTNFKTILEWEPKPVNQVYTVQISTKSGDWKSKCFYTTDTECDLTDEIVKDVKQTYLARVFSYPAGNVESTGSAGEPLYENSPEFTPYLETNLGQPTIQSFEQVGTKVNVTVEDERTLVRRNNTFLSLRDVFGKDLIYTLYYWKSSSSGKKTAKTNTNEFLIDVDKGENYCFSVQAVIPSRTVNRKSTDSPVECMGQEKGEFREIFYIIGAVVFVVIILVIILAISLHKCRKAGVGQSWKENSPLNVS

B1: chimeric mouse/human version of 10H10 mAb (antibody, V domains shown)
VH: QVHLQQSGAELMKPGASVKISCKASGYTFITYWIEWVKQRPGHGLEWIGDILPGSGSTNYNENFKGKATFTADSSSNTAYMQLSSLTSEDSAVYYCARSGYYGNSGFAYWGQGTLVTVSA
VL: DIVMTQSPSSLTVTAGEKVTMSCKSSQSLLSSGNQKNYLTWYQQIPGQPPKLLIYWASTRESGVPDRFTGSGSGTDFTLTINSVQAEDLAVYYCQNDYTYPLTFGAGTKLELK
- cell binding (% to 10H10): 100%
